Consider one molecule from article PMC11012335, “Hfq-Antisense RNA I Binding Regulates RNase E-Dependent RNA Stability and ColE1 Plasmid Copy Number”.

For the data set, the target named is Hfq WT (Escherichia coli K-12 MG1655, UniProt P0A6X3 1-102). Description: EMSA; EMSA: 20 mM Tris-HCl pH 7.6, 0.5 M NaCl, 1 mM EDTA, 1% glycerol, 20 min at 25 C; native PAGE in 0.5x TBE at 4 C. The note with it: protein: recombinant; tags: His tag removed with AcTEV protease; label: 3' fluorescein; single-stranded. A general note: A gel shift assay detects complexes by their altered migration in electrophoresis.

Consider GGGACAGUAUUUG (ssRNA, 3' fluorescein) [BR13], for which the binding result was “binds”.
